In patent publication US20240343811A1:
Read-outs that look alike come from different tables or passages of the source.

Assays:
[1] = target: CD16 on primary human NK cells (human) (UniProt P08637); experiment: FACS on human NK cells
[2] = target: human CD16a (158V), full length, on cells (human) (UniProt P08637); experiment: cell-based or functional assay
[3] = target: cynomolgus monkey CD16, full length, on FlpinCHO cells (cynomolgus monkey) (UniProt Q8SPW2); experiment: FACS on FlpinCHO cells
Sequence of cynomolgus monkey CD16, full length, on FlpinCHO cells (cynomolgus monkey) (Q8SPW2 other isoform, or with tags, fused parts or gaps limits assumed): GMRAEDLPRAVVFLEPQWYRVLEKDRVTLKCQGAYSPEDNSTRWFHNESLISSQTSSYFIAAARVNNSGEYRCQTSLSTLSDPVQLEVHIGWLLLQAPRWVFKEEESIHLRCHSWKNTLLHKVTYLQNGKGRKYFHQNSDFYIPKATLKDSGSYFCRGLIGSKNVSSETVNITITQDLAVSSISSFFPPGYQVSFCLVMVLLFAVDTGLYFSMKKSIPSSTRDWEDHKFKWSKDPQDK

[4] = target: human CD16a (158F), full length, on FlpinCHO cells (human) (UniProt P08637); experiment: FACS on FlpinCHO cells
Sequence of human CD16a (158F), full length, on FlpinCHO cells (human) (P08637 17-254 limits assumed): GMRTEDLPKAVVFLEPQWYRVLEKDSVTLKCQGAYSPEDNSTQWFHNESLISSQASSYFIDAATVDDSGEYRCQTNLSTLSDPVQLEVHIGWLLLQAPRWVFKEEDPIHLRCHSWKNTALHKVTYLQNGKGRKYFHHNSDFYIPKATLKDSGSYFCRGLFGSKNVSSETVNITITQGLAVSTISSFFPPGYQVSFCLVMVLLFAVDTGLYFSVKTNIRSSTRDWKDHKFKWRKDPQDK

[5] = target: human CD16a (158V), full length, on cells (human) (UniProt P08637); experiment: FACS on FlpinCHO cells
[6] = target: human CD16b (NA1), full length, on FlpinCHO cells (human) (UniProt O75015); experiment: FACS on FlpinCHO cells
Sequence of human CD16b (NA1), full length, on FlpinCHO cells (human) (O75015 other isoform, or with tags, fused parts or gaps limits assumed): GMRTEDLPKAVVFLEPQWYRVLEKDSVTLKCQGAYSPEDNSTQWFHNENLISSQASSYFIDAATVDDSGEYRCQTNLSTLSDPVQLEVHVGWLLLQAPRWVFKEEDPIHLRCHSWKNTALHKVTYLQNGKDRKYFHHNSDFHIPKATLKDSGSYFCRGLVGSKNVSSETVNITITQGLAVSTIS

[7] = target: human CD16b (NA2), full length, on FlpinCHO cells (human) (UniProt O75015); experiment: FACS on FlpinCHO cells
Sequence of human CD16b (NA2), full length, on FlpinCHO cells (human) (O75015 17-200 N65S limits assumed): as the sequence (O75015 other isoform, or with tags, fused parts or gaps limits assumed) above, with R20S, N49S, D66N, V90I counted along it

[8] = target: human CD16a (158V), full length, on cells (human) (UniProt P08637); experiment: cell-based or functional assay; remark: listed apart in the source
[9] = target: human CD16a (158V), full length, on cells (human) (UniProt P08637); experiment: FACS, biotinylated antibody
[10] = target: human CD16a (158V), full length, on cells (human) (UniProt P08637); experiment: FACS, biotinylated antibody, +10 mg/mL human immunoglobulin

Sequence of human CD16a (158V), full length, on cells (human) (P08637 17-254 F176V limits assumed): as the sequence (P08637 17-254 limits assumed) above, with F160V counted along it
Sequence of CD16 on primary human NK cells (human) (P08637 17-254): as the sequence (P08637 17-254 limits assumed) above

“NC, negative control antibody scFv-hFc (L234A, L235A and D265A) against chicken egg lysozyme (Fc fusion)” was tested, and the Maximum mean fluorescence intensity [1] was 238, the Maximum fluorescence value [2] was 2070 and the Maximum mean fluorescence intensity [3] was 128. It also gave a Maximum mean fluorescence intensity [4] of 216, a Maximum mean fluorescence intensity [5] of 248 and a Maximum mean fluorescence intensity [6] of 189. For the same substance, the Maximum mean fluorescence intensity [7] was 447, the EC50, activation activity for Jurkat cell [8] was 19 nM and the Maximum fluorescence value [8] was 6400. For the same substance, the Maximum mean fluorescence intensity [9] was 134 and the Maximum mean fluorescence intensity [10] was 96.
